Measured values as given in publication PMC5679641 (PLoS Pathogens, 2017).
“And” between values parts separate entries of the source, which are not always exact repeats. Equal entries are not always repeated.

Assays:
[1] = target: RelAp43, Nluc- or YFP-tagged (BRET); assay: FRET or BRET
[2] = target: ABIN2, Nluc- or YFP-tagged (BRET) (human) (UniProt Q8NFZ5); assay: FRET or BRET
[3] = target: TPL2, Nluc- or YFP-tagged (BRET) (human) (UniProt P41279); assay: FRET or BRET
[4] = target: T1, p105, Nluc- or YFP-tagged (BRET) (UniProt P19838 1-968); assay: FRET or BRET; details: partners not purified
T1 construct: also called NFκB1(p105/p50)
T1 sequence (looked up): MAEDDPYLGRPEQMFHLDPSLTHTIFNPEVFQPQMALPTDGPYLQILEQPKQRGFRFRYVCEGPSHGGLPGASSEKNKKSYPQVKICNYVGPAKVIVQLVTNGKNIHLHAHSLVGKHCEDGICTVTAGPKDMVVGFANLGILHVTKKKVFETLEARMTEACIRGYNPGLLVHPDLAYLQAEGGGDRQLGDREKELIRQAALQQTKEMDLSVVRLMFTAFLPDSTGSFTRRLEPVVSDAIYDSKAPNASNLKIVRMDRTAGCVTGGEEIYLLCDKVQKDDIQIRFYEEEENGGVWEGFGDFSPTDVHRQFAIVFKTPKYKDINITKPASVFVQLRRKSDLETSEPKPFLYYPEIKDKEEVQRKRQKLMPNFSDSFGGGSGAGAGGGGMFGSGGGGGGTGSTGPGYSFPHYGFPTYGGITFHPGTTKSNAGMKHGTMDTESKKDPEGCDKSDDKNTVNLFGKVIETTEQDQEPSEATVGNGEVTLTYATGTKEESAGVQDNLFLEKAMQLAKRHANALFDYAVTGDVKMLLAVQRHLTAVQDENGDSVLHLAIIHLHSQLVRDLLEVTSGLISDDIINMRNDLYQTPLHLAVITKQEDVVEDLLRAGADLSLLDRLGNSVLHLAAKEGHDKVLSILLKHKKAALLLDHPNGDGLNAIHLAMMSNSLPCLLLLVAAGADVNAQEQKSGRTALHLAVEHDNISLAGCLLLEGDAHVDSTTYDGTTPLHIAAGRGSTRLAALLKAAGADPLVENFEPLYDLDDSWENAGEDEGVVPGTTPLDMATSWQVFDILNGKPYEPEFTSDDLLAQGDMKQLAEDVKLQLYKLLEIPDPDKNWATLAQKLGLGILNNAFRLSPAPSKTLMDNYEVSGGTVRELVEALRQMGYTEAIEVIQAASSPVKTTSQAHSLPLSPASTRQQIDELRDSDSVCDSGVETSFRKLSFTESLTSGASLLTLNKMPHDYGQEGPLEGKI

[5] = target: T2, TPL2, Nluc- or YFP-tagged (BRET) (human, UniProt P41279-1 1-467); assay: FRET or BRET; details: partners not purified
T2 construct: also called MAP3K8
T2 sequence (P41279 whole entry): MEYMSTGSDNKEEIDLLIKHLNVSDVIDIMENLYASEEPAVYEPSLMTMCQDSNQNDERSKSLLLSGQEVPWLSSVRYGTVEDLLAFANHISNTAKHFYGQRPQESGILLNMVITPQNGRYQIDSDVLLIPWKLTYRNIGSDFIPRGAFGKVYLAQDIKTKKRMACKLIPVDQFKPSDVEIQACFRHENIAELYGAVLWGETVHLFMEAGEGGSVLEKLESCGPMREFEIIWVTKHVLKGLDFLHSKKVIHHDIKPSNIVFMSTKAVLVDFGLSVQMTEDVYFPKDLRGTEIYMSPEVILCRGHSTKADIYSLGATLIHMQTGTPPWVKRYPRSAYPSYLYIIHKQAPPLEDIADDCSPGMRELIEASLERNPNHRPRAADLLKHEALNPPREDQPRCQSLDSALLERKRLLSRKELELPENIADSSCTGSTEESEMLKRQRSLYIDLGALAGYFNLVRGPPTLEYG

[6] = target: TPL2, Glu1- or Glu2-tagged (PCA) (human, UniProt P41279-1 1-467); assay: split reporter (BiFC, NanoBiT); details: partners not purified
Chain of TPL2, Glu1- or Glu2-tagged (PCA) (P41279 whole entry): as above

Chain of RelAp43, Nluc- or YFP-tagged (BRET) (Q04206 whole entry): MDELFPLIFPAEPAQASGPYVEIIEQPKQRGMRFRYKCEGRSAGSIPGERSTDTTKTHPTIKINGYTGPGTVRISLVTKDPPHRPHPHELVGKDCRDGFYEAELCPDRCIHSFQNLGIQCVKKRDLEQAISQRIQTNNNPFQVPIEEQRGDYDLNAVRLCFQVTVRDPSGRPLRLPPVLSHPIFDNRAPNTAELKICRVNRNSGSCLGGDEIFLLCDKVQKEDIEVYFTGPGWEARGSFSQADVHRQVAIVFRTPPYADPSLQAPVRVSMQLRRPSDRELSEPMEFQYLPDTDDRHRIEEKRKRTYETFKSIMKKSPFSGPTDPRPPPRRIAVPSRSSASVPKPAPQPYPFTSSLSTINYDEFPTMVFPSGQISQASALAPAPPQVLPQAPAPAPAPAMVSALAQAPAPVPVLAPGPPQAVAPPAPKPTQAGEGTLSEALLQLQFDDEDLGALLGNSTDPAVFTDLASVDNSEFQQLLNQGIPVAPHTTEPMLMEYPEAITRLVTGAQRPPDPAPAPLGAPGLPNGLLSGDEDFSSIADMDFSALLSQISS
Chain of TPL2, Nluc- or YFP-tagged (BRET) (human) (P41279 whole entry): as the sequence (P41279 whole entry) above

Molecule: p105, Nluc- or YFP-tagged (BRET) (from UniProt P19838 1-968) (natural protein)
- netBRET [1]: > 0.05

Molecule: MSAD, YFP-tagged (BRET) (from UniProt P16287 1-202) (natural protein)
- netBRET [2]: 0.022 and 0.063

Molecule: p50, Nluc- or YFP-tagged (BRET) (domain or fragment)
- netBRET [1]: > 0.05

Molecule: MTha, YFP-tagged (BRET) (natural protein)
- netBRET [1]: 0.022 to 0.109
- netBRET [3]: > 0.05

B1: ABIN2, Nluc- or YFP-tagged (BRET) (natural protein, human, UniProt Q8NFZ5-1 1-429, looked up)
chain: MSRDPGSGGWEEAPRAAAALCTLYHEAGQRLRRLQDQLAARDALIARLRARLAALEGDAAPSLVDALLEQVARFREQLRRQEGGAAEAQMRQEIERLTERLEEKEREMQQLLSQPQHEREKEVVLLRRSMAEGERARAASDVLCRSLANETHQLRRTLTATAHMCQHLAKCLDERQHAQRNVGERSPDQSEHTDGHTSVQSVIEKLQEENRLLKQKVTHVEDLNAKWQRYNASRDEYVRGLHAQLRGLQIPHEPELMRKEISRLNRQLEEKINDCAEVKQELAASRTARDAALERVQMLEQQILAYKDDFMSERADRERAQSRIQELEEKVASLLHQVSWRQDSREPDAGRIHAGSKTAKYLAADALELMVPGGWRPGTGSQQPEPPAEGGHPGAAQRGQGDLQCPHCLQCFSDEQGEELLRHVAECCQ
notes: also called TNIP2
- netBRET [4]: < 0.05
- netBRET [5]: 0.093

B2: MSAD, YFP-tagged (BRET) (natural protein)
chain: MNLLRKIVKNRRDEDTQKSSPASAPLDDDDLWLPPPEYVPLKELTGKKNMRNFCINGRVKVCSPNGYSFRILRHILKSFDEIYSGNHRMIGLVKVVIGLALSGSPVPEGLNWVYKLRRTFIFQWADSRGPLEGEELEYSQEITWDDDTEFVGLQIRVIAKQCHIQGRVWCINMNPRACQLWSDMSLQTQRSEEDKDSSLLLE
- netBRET [5]: > 0.05

B3: ABIN2, Glu1- or Glu2-tagged (PCA) (natural protein, human, UniProt Q8NFZ5-1 1-429, looked up)
chain: B1 chain
- other [6]: 0.86
